These results are taken from patent US10766960 (dated 2020).

Changes are numbered by the printed parent chain. Like-named read-outs stand apart in the source and are kept apart here.

Usually Kd stands for the constant that tells how readily two partners part at equilibrium. Higher therefore signals weaker binding.

What all share (test): SPR
In general terms: In SPR one partner is held on a chip, and binding of the other changes the refractive index at the surface.

For test [1], the target named is T1, FcgRIa (human, UniProt P12314).
T1 chain: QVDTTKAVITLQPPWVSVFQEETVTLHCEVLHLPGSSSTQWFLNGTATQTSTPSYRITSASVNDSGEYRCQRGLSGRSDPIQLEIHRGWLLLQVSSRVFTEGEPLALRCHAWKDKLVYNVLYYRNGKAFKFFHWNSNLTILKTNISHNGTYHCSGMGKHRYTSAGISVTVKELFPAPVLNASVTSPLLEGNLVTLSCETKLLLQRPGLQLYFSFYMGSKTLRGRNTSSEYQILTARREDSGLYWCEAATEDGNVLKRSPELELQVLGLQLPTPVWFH

In test [2] the target is T2, FcgRIIb (human, UniProt P31994).
T2 chain: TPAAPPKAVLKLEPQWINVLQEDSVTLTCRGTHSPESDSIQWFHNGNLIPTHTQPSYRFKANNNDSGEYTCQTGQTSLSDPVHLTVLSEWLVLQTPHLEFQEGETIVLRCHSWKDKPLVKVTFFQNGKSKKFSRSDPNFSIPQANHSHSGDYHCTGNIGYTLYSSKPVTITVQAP

The target of test [3] is T3, FcgRIIIa F (human, UniProt P08637).
Test [4] has as its target T4, FcgRIIa R (human, UniProt P12318).
T4 chain: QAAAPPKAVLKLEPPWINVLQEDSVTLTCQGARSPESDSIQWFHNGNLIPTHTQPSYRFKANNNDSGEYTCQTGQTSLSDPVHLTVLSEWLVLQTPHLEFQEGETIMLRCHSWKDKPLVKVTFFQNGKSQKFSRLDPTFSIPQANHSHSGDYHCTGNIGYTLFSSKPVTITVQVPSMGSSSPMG

The target in test [5] is T5, FcgRIIIa V (human, UniProt P08637).
Test [6] has as its target T6, FcgRIIa H (human, UniProt P12318).
T6 chain: T4 chain with R134H

In test [7] the target is T2, FcgRIIb.
Test [8] deals with T4, FcgRIIa R.
For test [9], the target named is T3, FcgRIIIa F. The source holds these as a separate data set.
The target of test [10] is T1, FcgRIa.
Test [11] concerns the target T6, FcgRIIa H.
For test [12], the target named is T5, FcgRIIIa V. This is another data set of the same source.

T5 sequence (P08637 17-208 F176V): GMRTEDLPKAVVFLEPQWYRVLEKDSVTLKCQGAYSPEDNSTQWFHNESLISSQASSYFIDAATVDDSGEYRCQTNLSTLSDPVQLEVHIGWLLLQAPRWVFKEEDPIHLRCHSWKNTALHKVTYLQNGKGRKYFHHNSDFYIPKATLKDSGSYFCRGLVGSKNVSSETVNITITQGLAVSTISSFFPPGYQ
T3 sequence (P08637 17-208): as the sequence (P08637 17-208 F176V) above, with V160F counted along it

B1: H240-Kn166/H240-Hl170/L73-k0 (antibody)
chain 1: QDQLVQSGAEVKKPGASVKVSCKASGFNIKDTYIQWVRQAPGQGLEWMGRIDPLRKQTKYREKFEGRVTITADTSTNTAYMELSSLRSEDTAVYYCVRSGREFDYWGQGTLVTVSSASTKGPSVFPLAPSSKSTSGGTAALGCLVKDYFPEPVTVSWNSGALTSGVHTFPAVLQSSGLYSLSSVVTVPSSSLGTQTYICNVNHKPSNTKVDKKVEPKSCDKTHTCPPCPAPEYYWGPMVFLFPPKPKDTLMISRTPEVTCVVVDVSDEDPEVKFNWYVDGVEVHNAKTKPREEQYNATYRVVSVLTVLHQDWLNGKEYKCKVSNKDAPAPIEKTISKAKGQPREPQVCTLPPSRDELTKNQVSLWCLVKGFYPSDIAVEWESNGQPENNYKTTPPVLDSDGSFFLYSKLTVDKSRWQQGNVFSCSVMHEALHNHYTQKSLSLSP
chain 2: QDQLVQSGAEVKKPGASVKVSCKASGFNIKDTYIQWVRQAPGQGLEWMGRIDPLRKQTKYREKFEGRVTITADTSTNTAYMELSSLRSEDTAVYYCVRSGREFDYWGQGTLVTVSSASTKGPSVFPLAPSSKSTSGGTAALGCLVKDYFPEPVTVSWNSGALTSGVHTFPAVLQSSGLYSLSSVVTVPSSSLGTQTYICNVNHKPSNTKVDKKVEPKSCDKTHTCPPCPAPELLGGPSVFLFPPKPKDTLMISRTPEVTCVVVDVSHEEPEVKFNWYVDGVEVHNAKTKPREEQYNSTYRVVSVLTVLHQDWLNGKEYKCKVSNDAAPKPIEETISKAKGQPREPQVYTLPPSRCELTKNQVSLSCAVKGFYPSDIAVEWESNGQPENNYKTTPPVLDSDGSFFLVSKLTVDKSRWQQGNVFSCSVMHEALHNHYTQKSLSLSP
chain 3: DIQMTQSPSSLSASVGDRVTITCRASQDIHKYIAWYQQKPGQAPRLLIQYTSTLQPGVPSRFSGSGSGTDYTFTISSLQPEDIATYYCLQYEQLRTFGGGTKVEIKRTVAAPSVFIFPPSDEQLKSGTASVVCLLNNFYPREAKVQWKVDNALQSGNSQESVTEQDSKDSTYSLSSTLTLSKADYEKHKVYACEVTHQGLSSPVTKSFNRGEC
Turning to B1, the dissociation constant Kd with FcgRIa [1] was found to be 0.066 nM; in the test with FcgRIIb [2], 200 nM; with FcgRIIIa F [3] it was 4.2 nM; with FcgRIIa R [4], 31 nM; with FcgRIIIa V [5], 1 nM; with FcgRIIa H [6], 22 nM.

B2: H240-Kn172/H240-Hl177/L73-k0 (antibody)
chain 1: B1 chain 1 with A327L, I331M
chain 2: B1 chain 2 with A327L, I331Q
chain 3: B1 chain 3
As for B2, the Kd stood at 0.25 nM with FcgRIa [1]; 160 nM with FcgRIIb [2]; 2 nM with FcgRIIIa F [3]; 29 nM with FcgRIIa R [4]; 0.22 nM with FcgRIIIa V [5]; 57 nM in the test with FcgRIIa H [6].

B3: H240-Kn120/H240-Hl174/L73-k0 (antibody)
chain 1: B1 chain 1 with A327L
chain 2: B1 chain 2 with A327L, I331E
chain 3: B1 chain 3
For B3, the Kd with FcgRIa [1] was 0.14 nM; with FcgRIIb [2], 130 nM; with FcgRIIIa F [3], 0.51 nM; with FcgRIIa R [4], 30 nM; in the test with FcgRIIIa V [5], 0.036 nM; with FcgRIIa H [6] it was 55 nM.

B4: H240-Kn200/H240-Hl210/L73-k0 (antibody)
chain 1: B1 chain 1 with Y233S, Y234Q, D269E, D326A, A327L
chain 2: B1 chain 2 with A327L, K329A
chain 3: B1 chain 3
Consider B4, for which the Kd is 2600 nM with FcgRIIb [7]; 480 nM with FcgRIIa R [8]; 5.7 nM with FcgRIIIa F [9]; 0.18 nM with FcgRIa [10]; 170 nM with FcgRIIa H [11]; 1.2 nM in the test with FcgRIIIa V [12].

B5: H240-Kn120/H240-Hl182/L73-k0 (antibody)
chain 1: B1 chain 1 with A327L
chain 2: B1 chain 2 with A230H, A327L
chain 3: B1 chain 3
In the case of B5, the Kd with FcgRIa [1] amounted to 0.18 nM; with FcgRIIb [2] it was 240 nM; with FcgRIIIa F [3] it was 3.1 nM; with FcgRIIa R [4], 40 nM; with FcgRIIIa V [5] it was 0.29 nM; with FcgRIIa H [6], 77 nM.

B6: H240-Kn178/H240-Hl068/L73-k0 (antibody)
chain 1: B1 chain 1 with A327L, K333Y
chain 2: B1 chain 2 with A327L
chain 3: B1 chain 3
Regarding B6, the dissociation constant (Kd) was 0.23 nM in the test with FcgRIa [1]; 110 nM with FcgRIIb [2]; 1.4 nM with FcgRIIIa F [3]; 26 nM with FcgRIIa R [4]; 0.19 nM in the test with FcgRIIIa V [5]; 65 nM with FcgRIIa H [6].

B7: H240-Kn120/H240-Hl150/L73-k0 (antibody)
chain 1: B1 chain 1 with A327L
chain 2: B1 chain 2 with A327L, I331T
chain 3: B1 chain 3
As to B7, the Kd worked out at 0.39 nM with FcgRIa [1]; 98 nM with FcgRIIb [2]; 3 nM in the test with FcgRIIIa F [3]; 20 nM with FcgRIIa R [4]; 0.57 nM with FcgRIIIa V [5]; 35 nM in the test with FcgRIIa H [6].

B8: H240-Kn138/H240-Hl147/L73-k0 (antibody)
chain 1: B1 chain 1 with A327W
chain 2: B1 chain 2 with A327W
chain 3: B1 chain 3
On to B8, for which the equilibrium dissociation constant (Kd) in the test with FcgRIa [1] worked out at 0.31 nM; with FcgRIIb [2] it was 110 nM; with FcgRIIIa F [3], 22 nM; with FcgRIIa R [4] it was 11 nM; with FcgRIIIa V [5], 16 nM; with FcgRIIa H [6], 130 nM.

B9: H240-Kn173/H240-Hl068/L73-k0 (antibody)
chain 1: B1 chain 1 with A327L, I331Q
chain 2: B1 chain 2 with A327L
chain 3: B1 chain 3
Regarding B9, the dissociation constant (Kd) turned out to be 0.12 nM with FcgRIa [1]; 280 nM with FcgRIIb [2]; 1.8 nM in the test with FcgRIIIa F [3]; 40 nM in the test with FcgRIIa R [4]; 0.4 nM with FcgRIIIa V [5]; 57 nM with FcgRIIa H [6].

B10: H240-Kn138/H240-Hl068/L73-k0 (antibody)
chain 1: B1 chain 1 with A327W
chain 2: B1 chain 2 with A327L
chain 3: B1 chain 3
For B10, the Kd with FcgRIa [1] stood at 0.16 nM; in the test with FcgRIIb [2], 130 nM; with FcgRIIIa F [3] it was 3.7 nM; in the test with FcgRIIa R [4], 19 nM; in the test with FcgRIIIa V [5], 0.43 nM; with FcgRIIa H [6], 25 nM.

B11: H240-Kn227/H240-Hl210/L73-k0 (antibody)
chain 1: B1 chain 1 with Y233E, Y234Q, M238I, D269E, D326A, A327L
chain 2: B1 chain 2 with A327L, K329A
chain 3: B1 chain 3
For B11, the Kd in the test with FcgRIIb [7] came out at 2500 nM; with FcgRIIa R [8], 260 nM; with FcgRIIIa F [9], 4.4 nM; with FcgRIa [10], 0.17 nM; with FcgRIIa H [11] it was 230 nM; in the test with FcgRIIIa V [12], 0.91 nM.

B12: H240-Kn149/H240-Hl068/L73-k0 (antibody)
chain 1: B1 chain 1 with A327W, K333L
chain 2: B1 chain 2 with A327L
chain 3: B1 chain 3
For B12, the Kd with FcgRIa [1] was found to be 0.38 nM; with FcgRIIb [2] it was 150 nM; with FcgRIIIa F [3] it was 1.5 nM; with FcgRIIa R [4], 19 nM; with FcgRIIIa V [5], 0.32 nM; with FcgRIIa H [6], 26 nM.

B13: H240-Kn120/H240-Hl170/L73-k0 (antibody)
chain 1: B1 chain 1 with A327L
chain 2: B1 chain 2
chain 3: B1 chain 3
As to B13, the dissociation constant Kd in the test with FcgRIa [1] amounted to 0.19 nM; with FcgRIIb [2] it was 67 nM; with FcgRIIIa F [3], 3.9 nM; in the test with FcgRIIa R [4] it was 8.6 nM; with FcgRIIIa V [5], 0.93 nM; with FcgRIIa H [6], 18 nM.

B14: H240-Kn208/H240-Hl214/L73-k0 (antibody)
chain 1: B1 chain 1 with Y233D, Y234Q, D269E, D326A, A327L
chain 2: B1 chain 2 with A327L, K329F
chain 3: B1 chain 3
For the molecule B14, the Kd is 4500 nM in the test with FcgRIIb [7]; 720 nM with FcgRIIa R [8]; 3 nM with FcgRIIIa F [9]; 0.053 nM in the test with FcgRIa [10]; 420 nM in the test with FcgRIIa H [11]; 0.9 nM with FcgRIIIa V [12].
